The target of assay [1] is T1, recombinant human B7-H3-mFc protein (human, UniProt Q5ZPR3 29-466).
T1 construct: also called B7-H3 protein; not shown: mouse Fc domain
T1 sequence: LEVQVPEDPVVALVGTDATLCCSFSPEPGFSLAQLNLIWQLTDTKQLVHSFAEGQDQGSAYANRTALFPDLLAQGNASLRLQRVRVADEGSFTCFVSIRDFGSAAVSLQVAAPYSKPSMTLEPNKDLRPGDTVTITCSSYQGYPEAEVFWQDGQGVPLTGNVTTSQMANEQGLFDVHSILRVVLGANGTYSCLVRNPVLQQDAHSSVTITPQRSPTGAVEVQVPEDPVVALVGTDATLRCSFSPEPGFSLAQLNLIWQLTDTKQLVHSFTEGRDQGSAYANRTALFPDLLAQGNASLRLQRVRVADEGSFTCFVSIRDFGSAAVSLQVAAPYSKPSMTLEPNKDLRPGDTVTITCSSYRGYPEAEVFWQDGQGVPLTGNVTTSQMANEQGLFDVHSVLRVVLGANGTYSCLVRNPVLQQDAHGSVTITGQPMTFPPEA
Description: ELISA, plate coated with human B7-H3-mFc. The protocol: The binding affinity of full-length antibodies to human, monkey, mouse and rat B7-H3 were evaluated by ELISA. In brief, 96-well plate was coated with B7-H3 proteins (i.e., human B7-H3-mFc protein, cynomolgus monkey B7-H3 protein or rat B7-H3 Fc chimeric protein) in coating buffer and incubated overnight at 4° C. After washing with PBS for 3 times, the 96-well plate was inverted and tapped on clean absorbent papers to remove excess liquid. The blocking buffer (PBS containing 1% bovine serum albumin (BSA) was added to the wells, followed by incubating the plate at 37° C. for 1 hour with gentle continual shaking. After washing with PBS for 3 times, serial dilutions of anti-B7-H3 antibody (in PBS containing 1% BSA) were added into the wells. The plate was incubated at 37° C. for 1 hour with gentle continual shaking. After washing with PBS for 3 times, the secondary antibody (peroxidase-conjugated AffiniPure™ F(ab′)₂ fragment goat anti-human IgG (H+L)) was added into the wells and then incubated at 37° C. for 1 hour with gentle continual shaking. The plate was washed with PBS for 3 times, and the TMB substrate was added into each well and incubated at room temperature for 5 minutes, avoiding from light. 1 N HCl stop solution was added into each well and the absorbance was measured at 450/650 nm. The binding affinity value (EC50) of antibodies was determined by software.
In general terms: An ELISA detects its analyte on a solid surface through an enzyme-linked reagent.

In assay [2] the target is T2, recombinant cynomolgus monkey B7-H3 protein (cynomolgus monkey, UniProt Q7TPB4 26-248 (rat entry)).
T2 chain: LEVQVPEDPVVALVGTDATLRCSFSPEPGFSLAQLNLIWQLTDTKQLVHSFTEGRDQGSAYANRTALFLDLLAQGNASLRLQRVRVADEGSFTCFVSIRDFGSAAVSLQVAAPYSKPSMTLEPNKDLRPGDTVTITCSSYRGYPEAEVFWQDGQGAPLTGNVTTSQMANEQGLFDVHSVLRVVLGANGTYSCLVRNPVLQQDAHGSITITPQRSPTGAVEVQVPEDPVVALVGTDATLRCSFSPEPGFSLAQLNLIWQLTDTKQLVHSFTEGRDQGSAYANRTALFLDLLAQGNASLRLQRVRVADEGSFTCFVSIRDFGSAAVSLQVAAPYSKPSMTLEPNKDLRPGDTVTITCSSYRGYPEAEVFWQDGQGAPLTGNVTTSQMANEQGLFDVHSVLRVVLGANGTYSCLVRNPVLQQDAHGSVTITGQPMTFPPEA
Description: ELISA, plate coated with cynomolgus monkey B7-H3.

Assay [3] has as its target T3, human B7-H3 on the surface of human cancer cells (human, UniProt Q5ZPR3 29-534).
T3 sequence: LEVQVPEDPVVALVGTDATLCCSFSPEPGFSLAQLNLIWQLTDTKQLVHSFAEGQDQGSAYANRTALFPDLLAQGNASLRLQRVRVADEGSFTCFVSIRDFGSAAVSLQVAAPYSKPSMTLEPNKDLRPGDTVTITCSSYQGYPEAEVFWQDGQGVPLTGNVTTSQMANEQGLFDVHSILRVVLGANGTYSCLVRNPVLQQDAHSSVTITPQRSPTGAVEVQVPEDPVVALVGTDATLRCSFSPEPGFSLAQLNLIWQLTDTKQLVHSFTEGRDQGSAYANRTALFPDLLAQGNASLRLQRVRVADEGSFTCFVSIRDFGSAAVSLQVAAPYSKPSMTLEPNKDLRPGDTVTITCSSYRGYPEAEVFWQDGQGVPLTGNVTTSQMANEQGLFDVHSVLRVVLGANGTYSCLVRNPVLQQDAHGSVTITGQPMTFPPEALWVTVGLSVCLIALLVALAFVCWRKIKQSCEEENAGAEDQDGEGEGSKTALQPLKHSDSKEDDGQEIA
Description: cell-based or functional assay.

Assay [4] has as its target T1, recombinant human B7-H3-mFc protein. Description: SPR; MMAE conjugate, not parental mAb. The protocol: The binding kinetics of the present antibodies against human B7-H3 were determined by Biacore™ assay. Carboxymethylated dextran biosensor chips (CM5) were activated according to the supplier's instructions. Anti-human IgG (Fc) was diluted with immobilization buffer before injection at a flow rate of 10 μL/minute to achieve approximately 10,000 response units (RU) of coupled protein followed by the injection of 1 M ethanolamine to block unreacted groups. Human anti-B7-H3 antibodies were captured on anti-human IgG chip. For kinetics measurements, two-fold serial dilutions of human B7-H3-mFc protein (from 40 nM to 0.3125 nM) were injected in HBS-EP⁺ Biacore™ running buffer provided by the manufacturer at a flow rate of 30 μL/min.
On the technique in general: Surface plasmon resonance follows binding to a sensor surface in real time, without labels.

In assay [5] the target is T3, human B7-H3 on the surface of human …. In words: cell-based or functional assay. The source holds these as a separate data set.

In general, EC50 refers to the concentration giving half of the maximal effect. By Kd is commonly meant a measure of binding affinity in units of concentration. By koff is commonly meant the first-order rate constant of dissociation. The kon is the rate constant with which the complex forms.

Where two headings read alike, the source gives them in different places.

B1: Ifinatamab (antibody, V domains shown)
VH: QVQLVQSGAEVKKPGSSVKVSCKASGYTFTNYVMHWVRQAPGQGLEWMGYINPYNDDVKYNEKFKGRVTITADESTSTAYMELSSLRSEDTAVYYCARWGYYGSPLYYFDYWGQGTLVTVSS
VL: EIVLTQSPATLSLSPGERATLSCRASSRLIYMHWYQQKPGQAPRPLIYATSNLASGIPARFSGSGSGTDFTLTISSLEPEDFAVYYCQQWNSNPPTFGQGTKVEIK
Consider B1, for which the EC50 in assay [1] was 0.0356 nM; in assay [2] it was 0.127 nM.

B2: 91H06-MMAE (other)
VH: EVQLVESGGGLVQPGGSLRLSCAASGFTFSDYGMGWVRQAPGKGLEWVSSISWDSSSKEYADSVKGRFTISRDNSKNTLYLQMNSLRAEDTAVYYCARAWIAIIGGGAHFDYWGQGTLVTVSS
VL: DIQMTQSPSSLSASVGDRVTITCRASQSVSSHLAWYQQKPGKAPKLLIYLTSSLQSGVPSRFSGSGSGTDFTLTISSLQPEDFATYYCMQSKSLPFTFGQGTKVEIKR
modifications: MMAE linked through a PEG linker and a protease-sensitive valine-citrulline or glutamate-valine-citrulline linker to the azide-modified antibody (mAb-4 Azide, tri-mannosyl ADC platform); DAR between 3.5 and 3.9; attachment residue not stated
notes: also called the present ADC
As to B2, in assay [3], the “Cytotoxicity activity (IC50, nM), CAL 27 cells” value is under 50 nM; the “Cytotoxicity activity (IC50, nM), Detroit 562 cells” value is under 50 nM; the “Cytotoxicity activity (IC50, nM), FaDu cells” value is under 50 nM; the “Cytotoxicity activity (IC50, nM), LNCaP cells” value is under 50 nM. Besides, in assay [4], the Kd was 0.24 nM, the koff stood at 0.000155 s⁻¹ and the kon worked out at 643000 M⁻¹ s⁻¹.

B3: 91H06-MMAF (other)
VH: EVQLVESGGGLVQPGGSLRLSCAASGFTFSDYGMGWVRQAPGKGLEWVSSISWDSSSKEYADSVKGRFTISRDNSKNTLYLQMNSLRAEDTAVYYCARAWIAIIGGGAHFDYWGQGTLVTVSS
VL: DIQMTQSPSSLSASVGDRVTITCRASQSVSSHLAWYQQKPGKAPKLLIYLTSSLQSGVPSRFSGSGSGTDFTLTISSLQPEDFATYYCMQSKSLPFTFGQGTKVEIKR
modifications: MMAF linked through a PEG linker and a protease-sensitive valine-citrulline or glutamate-valine-citrulline linker to the azide-modified antibody (mAb-4 Azide, tri-mannosyl ADC platform); DAR between 3.5 and 3.9; attachment residue not stated
Consider B3, for which, in assay [5], the “Cytotoxicity activity (IC50, nM), CAL 27 cells” value is under 10 nM; the “Cytotoxicity activity (IC50, nM), Detroit 562 cells” value was under 10 nM; the “Cytotoxicity activity (IC50, nM), FaDu cells” value was under 10 nM; the “Cytotoxicity activity (IC50, nM), LNCaP cells” value was under 10 nM.

For the origin of these results see patent US20250197501A1 (DEVELOPMENT CENTER FOR BIOTECHNOLOGY, published 2025).
